From publication PMC11479587, “Early steps of protein disaggregation by Hsp70 chaperone and class B J-domain proteins are shaped by Hsp110” (eLife, 2024) come the findings set out here.

T1: His6-SUMO-Sse1 (yeast (S. cerevisiae), UniProt P32589 1-693)
T1 construct: Sse1, yeast Hsp110 nucleotide exchange factor, Uniprot ID P32589; Held on the Ni-NTA BLI sensor through the His6-SUMO tag; also called His-Sse1; His-See1; source: recombinant, purified as Sse1 with the proteolytic cleavage of the tag omitted
T1 sequence (looked up): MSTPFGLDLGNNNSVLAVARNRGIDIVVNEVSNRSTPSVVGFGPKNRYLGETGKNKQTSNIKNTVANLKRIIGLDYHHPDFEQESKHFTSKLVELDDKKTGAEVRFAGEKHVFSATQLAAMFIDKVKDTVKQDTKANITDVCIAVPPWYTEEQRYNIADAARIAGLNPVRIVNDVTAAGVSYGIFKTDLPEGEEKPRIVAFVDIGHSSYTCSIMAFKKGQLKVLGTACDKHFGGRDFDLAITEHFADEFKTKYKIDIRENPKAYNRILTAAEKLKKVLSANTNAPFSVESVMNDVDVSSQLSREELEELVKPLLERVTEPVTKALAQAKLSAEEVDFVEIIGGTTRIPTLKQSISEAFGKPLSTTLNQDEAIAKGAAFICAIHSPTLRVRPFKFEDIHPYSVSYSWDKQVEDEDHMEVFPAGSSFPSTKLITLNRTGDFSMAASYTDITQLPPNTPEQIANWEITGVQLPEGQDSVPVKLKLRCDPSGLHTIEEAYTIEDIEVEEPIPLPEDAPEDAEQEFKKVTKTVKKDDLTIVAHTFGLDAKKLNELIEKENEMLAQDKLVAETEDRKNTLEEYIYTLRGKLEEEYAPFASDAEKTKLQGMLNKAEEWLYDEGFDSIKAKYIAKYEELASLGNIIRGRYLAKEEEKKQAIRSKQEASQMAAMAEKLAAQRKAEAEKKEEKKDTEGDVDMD

B1: Ssa1 (natural protein)
chain: not shown
notes: Ssa1, yeast Hsp70 chaperone, Uniprot ID P10591; also called Hsp70; yeast Hsp70; source: recombinant, expressed from pCA533-His6-SUMO-SSA1, purified using published protocols (Andréasson et al., 2008a)
B2: Sis1 immobilised through the His6-SUMO tag (natural protein, yeast (S. cerevisiae), UniProt P25294 1-352, looked up)
chain: MVKETKLYDLLGVSPSANEQELKKGYRKAALKYHPDKPTGDTEKFKEISEAFEILNDPQKREIYDQYGLEAARSGGPSFGPGGPGGAGGAGGFPGGAGGFSGGHAFSNEDAFNIFSQFFGGSSPFGGADDSGFSFSSYPSGGGAGMGGMPGGMGGMHGGMGGMPGGFRSASSSPTYPEEETVQVNLPVSLEDLFVGKKKSFKIGRKGPHGASEKTQIDIQLKPGWKAGTKITYKNQGDYNPQTGRRKTLQFVIQEKSHPNFKRDGDDLIYTLPLSFKESLLGFSKTIQTIDGRTLPLSRVQPVQPSQTSTYPGQGMPTPKNPSQRGNLIVKYKVDYPISLNDAQKRAIDENF
notes: Sis1, yeast class B J-domain protein, Uniprot ID P25294; also called His-Sis1; class B JDP
B3: Sse1 (natural protein, yeast (S. cerevisiae), UniProt P32589 1-693, looked up)
chain: T1 sequence (looked up)

For one assay, the target named is T1, His6-SUMO-Sse1. Description: BLI; His-Sse1 (2.5 µM) or His-Sse1-2 (1 µM) on the Ni-NTA sensor through the His6-SUMO tag; Ssa1 at 32-16,000 nM; level of binding fitted with a one site-specific binding model; buffer A with 5 mM ATP and 2 mM DTT. The settings on record: both partners purified.
The target of the assay “Sse1” is B3. Put plainly: BLI; His-Sis1 (0.4 µM, to saturation) on the Ni-NTA sensor through the His6-SUMO tag; 1 µM Ssa1 with increasing concentrations of Sse1 or Sse1-2; buffer A with 5 mM ATP and 2 mM DTT. The settings on record: both partners purified.
In assay [1] the target is B1. The description is as above. The conditions noted are these: both partners purified.
Assay [2] has as its target B1. Put plainly: cell-based or functional assay.

Sequence of Ssa1 (P10591 whole entry): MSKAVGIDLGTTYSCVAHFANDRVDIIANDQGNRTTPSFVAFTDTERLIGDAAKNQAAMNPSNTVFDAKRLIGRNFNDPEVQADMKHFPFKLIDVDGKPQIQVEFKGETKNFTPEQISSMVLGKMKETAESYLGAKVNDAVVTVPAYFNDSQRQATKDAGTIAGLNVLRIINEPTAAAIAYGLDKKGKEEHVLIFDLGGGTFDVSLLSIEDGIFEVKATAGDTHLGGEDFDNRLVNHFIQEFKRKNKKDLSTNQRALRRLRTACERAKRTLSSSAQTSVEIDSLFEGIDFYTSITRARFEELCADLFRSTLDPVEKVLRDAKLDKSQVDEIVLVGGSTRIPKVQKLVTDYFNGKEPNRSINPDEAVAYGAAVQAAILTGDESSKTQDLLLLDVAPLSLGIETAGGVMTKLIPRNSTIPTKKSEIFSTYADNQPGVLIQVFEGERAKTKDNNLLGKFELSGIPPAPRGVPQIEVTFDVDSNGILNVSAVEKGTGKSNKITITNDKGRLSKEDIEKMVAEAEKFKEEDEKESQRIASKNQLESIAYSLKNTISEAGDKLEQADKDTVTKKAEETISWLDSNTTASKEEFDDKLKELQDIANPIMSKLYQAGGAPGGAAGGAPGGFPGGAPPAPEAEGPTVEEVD

For B1, the binding result in the assay with His6-SUMO-Sse1 and with Sse1 was “binds” throughout.

Turning to B2, in the assay with Ssa1 [1], the binding result is on record as “binds”.

Turning to B3, the “inhibition of the refolding of aggregated luciferase by Ssa1-Ydj1 (1 µM each), titration of Sse1, activity after 1 hr” value with Ssa1 [2] worked out at 0.1 µM.
